Experimental findings from patent US20240398911A1 are described below.

Assay [1] addresses myc-tagged full-length S of SARS-CoV-2 variant P.1 (Gamma) expressed on Expi293F cells (SARS-CoV-2 P.1 (Gamma)).
Assay [2] addresses myc-tagged full-length S of SARS-CoV-2 variant B.1.351 (Beta) expressed on Expi293F cells (SARS-CoV-2 B.1.351 (Beta)).
Assay [3] concerns the target myc-tagged full-length S of SARS-CoV-2 variant B.1.1.7 (Alpha) expressed on Expi293F cells (SARS-CoV-2 B.1.1.7 (Alpha)).

Take REGN10987 (imdevimab) (antibody): the concentration for a half-maximal effect (EC50 (read off the curve)) in assay [1] was 0.2 nM; in assay [2] it was 0.3 nM.

Regarding “sACE22.v2.4 fused to human IgG1 Fc (Fc fusion)”, the values for the EC50 (read off the curve) in assay [3] and in assay [1] were 0.7 nM and 0.8 nM, respectively.

The EC50 (read off the curve) is the midpoint of the concentration-response curve. The low end stands for an effect from little substance, the high end for a need for much substance.
